Assay results reported in patent US20140141019A1.

Key:
Assay in all cases: SPOT alanine scanning, spot intensity
[1] = biological target: alanine analogs at Pro353 and Ile357 of the HER3 pentadecapeptides 342-356, 343-357 and 344-358
[2] = biological target: HER3 peptide 343-357 … with Asp352 replaced by alanine (human)
[3] = biological target: HER3 peptide 342-356 … with Asp352 replaced by alanine (human)
[4] = biological target: HER3 peptide 344-358 … with Asp352 replaced by alanine (human)

- decrease in antibody reactivity against the unmodified peptide [1]: 40 to 60%
- decrease in binding capacity against the unmodified peptide [2]: 92%
- decrease in binding capacity against the unmodified peptide [3]: 92%
- decrease in binding capacity against the unmodified peptide [4]: 92%
B1: mAb H4B-121 (purified human IgG) (antibody, V domains shown)
VH: EVQLVESGGGLVQPGRSLRLSCAASGFTFDDYAMHWVRQAPGKGLEWVSGISWNSGSIGYADSVKGRFTISRDNAKNSLYLQMNSLRAEDTAVYYCAREGQWPNYGMDVWGQGTTVTVSS
VL: QSVLTQPPSVSAAPGQKVTISCPGSSSNIGNNYVSWYQQLPGTAPKLLIYDNNERPSGIPDRFSGSTSGTSATLDITDLQAEDEATYYCGAWDNTLGVYVLGTGTQLTVL
